In the supplement of paper PMC9170038:

Tested on: MS2 coat protein
Assay: apparent KD of MS2 coat protein; designed switch direction (-1 OFF switch, 1 ON switch): -1; higher = weaker reporter binding
How it was run: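 The reported apparent KD is a per-design median over clusters, from curve fits of normalised cluster fluorescence. Protein titrations used SNAP-549-labelled MS2 coat protein, doubled from 0.7 or 1.5 nM to 3 µM, in Tris-HCl pH 7.5 buffer with KCl, MgCl2, BSA, DTT, tRNA and Tween-20, with no input, 200 uM small-molecule ligand, or an oligonucleotide input. The RNA switches were transcribed on Illumina chips by stalled E. coli RNA polymerase.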

[1] = Eterna round: R95, input ligand: microRNA oligo, concentration not stated
[2] = input ligand: microRNA oligo, concentration not stated
[3] = Eterna round: R95, input ligand: FMN 200 uM
[4] = Eterna round: R95, input ligand: none

Sequence | apparent KD of MS2 coat protein (input ligand: FMN 200 uM) | apparent KD of MS2 coat protein (input ligand: none) | apparent KD of MS2 coat protein [1] | apparent KD of MS2 coat protein [2] | apparent KD of MS2 coat protein [3] | apparent KD of MS2 coat protein [4]
UAUGUGUCAGGAUAUCGAUUAGAACAGAAUUUAACAAUAGUCGAGAAGGGACAUGAGGAUCACCCAUGUUCAUC [JR_Ex4_Sub022] (Eterna round: R97, puzzle: Exclusion 4) | 26.4 nM | 18.9 nM | – | – | – | –
ACGAAACAUGAGGAUCACCCAUGUGAGGAUAUGUAAAUACUAGACAAAUAACAGAAAAACAGAAGGCACUCAGA [JR_Exclusion1_Sub003] (puzzle: Exclusion 1) | – | – | 22 nM | – | – | –
GGCGACCUAGGAUAUACAUGAGGAUCACCCAUGUUUAUCUAUUAGAUGAAGACGGGUUGUAGAAGGAGGAUAUU [JL Geriin mod] (Eterna round: R96, puzzle: Exclusion 3) | 19.5 nM | 20.2 nM | – | 14.6 nM | – | –
UUUUUGUCAGGAUAUGAUUAGAUCUACUUCGGUAGAUCUAAUCAGAAGGGACAUGAGGAUCACCCAUGUAGUUU [Mod of Brourd - Jieux - Exclusion 4] (Eterna round: R97, puzzle: Exclusion 4) | 311 nM | 55.8 nM | – | – | – | –
CCAGAGGAAGGAUAUUAAGGCGUAUACAUGAGGAUCACCCAUGUCCUACACUUCGCACUAUAAGAAGGUUCCCGGA [Eternabot (Original) Solution 39] (Eterna round: R97, puzzle: Exclusion 5) | 193 nM | 121 nM | – | – | – | –
GCUAGGCAUGUCAGGAUAUGCUGUACCUUGGUACAGCAGAAGGGACAUGAGGAUCACCCAUGUGCCUACCUAGC [JL-BMX4-4.04] (Eterna round: R97, puzzle: Brourd's mod of Exclusion 4) | 173 nM | 28.3 nM | – | – | – | –
CCAGCGUAUGUAAGGAUAUGCUGGUCGAAAGAUCAGCAGAAGGUACAUGAGGAUCACCCAUGUGUAAUCGUUGG [Mod of JL 5 - Jieux - Brourd's mod of Exclusion 4] (Eterna round: R97, puzzle: Brourd's mod of Exclusion 4) | 52.7 nM | 18.9 nM | – | – | – | –
CCUCGACAUGAGGAUCACCCAUGUCAGGAUAUUGUGUCUCGGGUUUUUUACCGUUAGGCAAGAAGGGAUGUGUG [LRO-Excl1-14] (puzzle: Exclusion 1) | – | – | 19.7 nM | – | – | –
CGUCAACAUGAGGAUCACCCAUGUUAGGAUAUAGAGCCAGGGCACGACGCUAACCAGUCUAGAAGGGACGUGGG [Eternabot (Original) Solution 5] (Eterna round: R97, puzzle: Exclusion 1) | 45.9 nM | 37.1 nM | – | – | – | –
AAGUCGACGGUGAGGAUAUUAGUUGAACGACAGAUUAAGAAGGUACAUGAGGAUCACCCAUGUGGGUAACGUUG [Brourd's EX4 #77] (Eterna round: R97, puzzle: Brourd's mod of Exclusion 4) | 76.3 nM | 107 nM | – | – | – | –
CCGGAACAUGAGGAUCACCCAUGUGAGGAUAUCGUACGUUCGUCGAAAGACGAUCGUACGAGAAGGCAUGCCGG [Eli x1 4.34] (Eterna round: R97, puzzle: Exclusion 1) | 19.6 nM | 27.7 nM | – | – | – | –
GCGUCGAGUGUGAGGAUAUGCUGGUCAUAAGAUCAGCAGAAGGCACAUGAGGAUCACCCAUGUGAAAACGAUGC [Mat - Exclusion 4 - JL Mod - D69] (puzzle: Brourd's mod of Exclusion 4) | – | – | 16.3 nM | – | 73.2 nM | 20.6 nM
CUGAGCAGACGGAGAUCCAACAUGAGGAUCACCCAUGUCUCAUAAGCUUUUUGUUCAUCUUAUUGUACCUUGGUGCU [JL ViennaUCT Edcesobi mod 4] (puzzle: Sensor v3, turn-off variant 1) | – | – | 24.6 nM | – | 149 nM | 252 nM
GGUCCUUCUGUCAGGAUAUCCAGUAUCAGACAGCAGGAGAAGGGACAUGAGGAUCACCCAUGUAAUAAGAAGAA [Onrean] (Eterna round: R97, puzzle: Brourd's mod of Exclusion 4) | 51.9 nM | 27.6 nM | – | – | – | –
UAGCAAGCAAUAAGAUCCCACAUGAGGAUCACCCAUGUGCUCGUCUUAUAAAAGGUUUCGACGAAAACGUCGAGACC [Eli 91 v28] (Eterna round: R97, puzzle: Sensor, turn-off variant 1) | 19.8 nM | 16 nM | – | – | – | –
GUACGCUCAGGAUAUCAAGGGCUGUACAUGAGGAUCACCCAUGUUAUCUUGGUGUCAGCGUGAGAAGGGAGGGAAA [Xesoonesa] (Eterna round: R96, puzzle: Exclusion 5) | 27.2 nM | 28.6 nM | – | 20.2 nM | – | –
CUCUGCACGCUGCGGUCCUACAUGAGGAUCACCCAUGUGGUCUGGUGGCGUGGGUCGCCGGACUUGGCUCGUCUUGG [salish99_S_TOV1_R5_047] (Eterna round: R97, puzzle: Sensor, turn-off variant 1) | 15.4 nM | 15.8 nM | – | – | – | –
CCGGCUUAGGAGGAUAUAGGAGUCGAUAGACACCUAGAAGGCCUAACAUGAGGAUCACCCAUGUGACCUACCGG [Mod of Eli 28 - Jieux - Exclusion 6] (Eterna round: R97, puzzle: Exclusion 6) | 132 nM | 28.6 nM | – | – | – | –
AAAUAGCGAGGAUAUACUGUAUACGAAAGUAUACGCAUGGCACAUGAGGAUCACCCAUGUAGAAGGCGCUAUAA (Eterna round: R97, puzzle: Exclusion 2) | 43.4 nM | 22.3 nM | – | – | – | –
CGUAUGUAAGGAUAUUAGUAGUAGUCAGAAUAGACUAUUACUGAGAAGGUACAUGAGGAUCACCCAUGUUAGCG [Eli x4 4.15] (Eterna round: R97, puzzle: Exclusion 4) | 229 nM | 31.6 nM | – | – | – | –
UAGAAAUUCAACGAGUGAAACAUGAGGAUCACCCAUGUGGUGGUAAGGAACAAGCUUUUUGCACGUACUUAUAAGAA [JR_SV3TOV1_Sub003] (puzzle: Sensor v3, turn-off variant 1) | – | – | 422 nM | – | 239 nM | 437 nM
AAUUAUUUUUGAGGAUAUCGUGGUGAAACACCACGAGAAGGCGAGAUACACAUGAGGAUCACCCAUGUGAGCCUGAUGCUUAUG [Ex NG1 #51] (Eterna round: R96, puzzle: Exclusion NG 1) | – | – | – | 11.5 nM | – | –
AUGCCCUGAGGAUAUCUCAUCCCGCACAUGAGGAUCACCCAUGUUCUUCUCCGGGCUCCGAGAGAAGGCAGGCCUA [Armus6] (Eterna round: R97, puzzle: Exclusion 5) | 68.2 nM | 102 nM | – | – | – | –
GUUGACUGAUGAGGAUAUUCAUAAGAAUGGGCCUUGGUUUUACAUGAGGAUCACCCAUGUUGACAGAAGAAGGCAUCAGUCUGA [Eternabot solution 28] (Eterna round: R96, puzzle: Exclusion NG 2) | 659 nM | 109 nM | – | 120 nM | – | –
CUGGAAAACGAGGAUAUGCACCGGCUCGCUGACGCAGAAGGCGACACAUGAGGAUCACCCAUGUCGGUACGCGA [salish99_ex6_r004_449] (Eterna round: R97, puzzle: Exclusion 6) | 17.2 nM | 18.8 nM | – | – | – | –
